The target of this assay is hnRNPA1, endogenous, P09651. As to the kind of experiment: cross-linking; DSG cross-linking, sample not named in the text (Supplementary Fig. 2a); nucleo-cytoplasmic fractionation; immunoblot, 4–12% denaturing polyacrylamide gels. Particulars: remark: other sources report otherwise.

This note sets out measurements from paper PMC5491494.

B1: hnRNPA1, endogenous, P09651 1-372 (natural protein)
chain: MSKSESPKEPEQLRKLFIGGLSFETTDESLRSHFEQWGTLTDCVVMRDPNTKRSRGFGFVTYATVEEVDAAMNARPHKVDGRVVEPKRAVSREDSQRPGAHLTVKKIFVGGIKEDTEEHHLRDYFEQYGKIEVIEIMTDRGSGKKRGFAFVTFDDHDSVDKIVIQKYHTVNGHNCEVRKALSKQEMASASSSQRGRSGSGNFGGGRGGGFGGNDNFGRGGNFSGRGGFGGSRGGGGYGGSGDGYNGFGNDGGYGGGGPGYSGGSRGYGSGGQGYGNQGSGYGGSGSYDSYNNGGGGGFGGGSGSNFGGGGSYNDFGNYNNQSSNFGPMKGGNFGGRSSGPYGGGGQYFAKPRNQGGYGGSSSSSSYGSGRRF
Broadly, the stoichiometry N is the number of molecules, sites or subunits per partner or assembly. For the molecule B1, the stoichiometry N is 2.
